These results are taken from patent US20240092848A1 (UNIVERSIT LIBRE DE BRUXELLES, published 2024).

Test [1] has as its target T1, Reck-CK-Fc.
T1 chain: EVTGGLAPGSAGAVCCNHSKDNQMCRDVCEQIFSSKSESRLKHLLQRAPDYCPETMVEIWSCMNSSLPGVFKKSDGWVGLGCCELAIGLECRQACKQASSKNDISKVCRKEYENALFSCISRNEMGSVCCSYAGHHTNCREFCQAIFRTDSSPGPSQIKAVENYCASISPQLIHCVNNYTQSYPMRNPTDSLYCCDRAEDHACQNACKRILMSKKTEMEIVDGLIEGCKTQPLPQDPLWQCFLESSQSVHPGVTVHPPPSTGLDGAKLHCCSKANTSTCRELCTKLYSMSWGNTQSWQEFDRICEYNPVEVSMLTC
Description: isothermal titration calorimetry, peptide titrated into Reck-CK-Fc, 25 °C.

Another test addresses T2, HA-Reck.
T2 construct: whole, on cells; Co-expressed with V5-tagged Wnt ligands in GPR124-/-;RECK-/- HEK293 cells for PLA
T2 sequence (O95980 23-942, species assumed, looked up): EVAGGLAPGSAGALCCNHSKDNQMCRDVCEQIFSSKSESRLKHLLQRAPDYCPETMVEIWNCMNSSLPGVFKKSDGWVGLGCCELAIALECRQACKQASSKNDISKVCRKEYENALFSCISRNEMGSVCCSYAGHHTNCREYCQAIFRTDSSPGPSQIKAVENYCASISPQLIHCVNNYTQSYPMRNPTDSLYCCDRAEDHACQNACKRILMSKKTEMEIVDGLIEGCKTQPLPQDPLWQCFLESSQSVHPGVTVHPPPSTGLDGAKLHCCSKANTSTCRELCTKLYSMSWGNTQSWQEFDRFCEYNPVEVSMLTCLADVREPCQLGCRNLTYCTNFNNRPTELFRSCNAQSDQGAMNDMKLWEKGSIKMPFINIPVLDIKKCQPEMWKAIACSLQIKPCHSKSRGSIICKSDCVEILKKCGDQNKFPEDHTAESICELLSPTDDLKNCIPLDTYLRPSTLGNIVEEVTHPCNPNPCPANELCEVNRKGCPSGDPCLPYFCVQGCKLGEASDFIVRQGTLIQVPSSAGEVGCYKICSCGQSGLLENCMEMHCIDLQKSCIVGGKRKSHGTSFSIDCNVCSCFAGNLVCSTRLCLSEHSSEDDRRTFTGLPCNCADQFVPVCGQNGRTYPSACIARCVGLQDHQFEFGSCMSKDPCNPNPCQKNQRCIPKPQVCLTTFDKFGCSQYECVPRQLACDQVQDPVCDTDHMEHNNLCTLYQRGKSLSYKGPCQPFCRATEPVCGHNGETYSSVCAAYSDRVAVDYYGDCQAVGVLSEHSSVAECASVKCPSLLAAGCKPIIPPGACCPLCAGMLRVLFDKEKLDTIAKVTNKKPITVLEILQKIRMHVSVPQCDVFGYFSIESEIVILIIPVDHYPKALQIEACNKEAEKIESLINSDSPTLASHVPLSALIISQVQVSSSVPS
Description: proximity ligation assay (anti-V5/anti-HA), with against without co-expressed Gpr124. How it is done: Cells were fixed with 4% paraformaldehyde for 10 min at room temperature (RT) 48 h post transfection. For immunofluorescence staining (IF), cells were blocked in 1% BSA-PBS for 30 min before being exposed to primary antibodies for 1 h at RT. After three PBS washes, cells were incubated with secondary antibodies for 1 h at RT. For anti-V5 staining of Wnt ligands, cells were additionally washes for 10 min in PBS 0.1% Tween 20 before incubation with the secondary antibody solution. For the proximity ligation assay (PLA) (Sigma-Aldrich, St. Louis, MO), cells were blocked for 30 min at 37° C. with the Blocking solution provided by the manufacturer before being incubated with the primary antibodies for 1 h at RT. Cells were washed three times and incubated with the PLA probes anti-rabbit PLUS and anti-mouse MINUS for 1 h at 37° C. […]
Although Reck appears to be the dominant Wnt7 binding determinant, its function in Wnt signaling is known to rely on its capacity to form a complex with Gpr124 through its N-terminal CK domain (Y. Zhou, J. Nathans, Dev. Cell. 31, 248-256 (2014); B. Vanhollebeke et al., Elife. 4, 1-25 (2015)), a domain that is shown herein to be additionally implicated in Wnt7a binding. […] However, a 4-fold increase in Wnt7a-V5/HA-Reck PLAs signals was detected upon co-expression of untagged Gpr124 (FIG. 1F). […]

Test [2] addresses T1, Reck-CK-Fc. As to the kind of experiment: isothermal titration calorimetry with Reck-CK-Fc, 25 °C. A general note: In ITC the heat of successive injections is recorded.
Test [3] deals with T1, Reck-CK-Fc. Description: single-molecule force spectroscopy (AFM tip with PEG-linked pWnt7b, surface coated with Reck-CK-Fc on protein G).

Side chains are listed from the residue outwards. Ends that are not written are not given here. AFM tip = not defined here

B1: pWnt7a (peptide)
peptide: VEPVRASRNKRPTFLKIKKPLSYRKPMDT
notes: Synthetic, purity over 90%; also called synthetic Wnt7a linker peptide; pWnt7a 238-266
What is called Kd is the concentration at which binding is half-saturated. B1 yielded a Kd with Reck-CK-Fc [1] of 7 µM.

B2: Wnt7a-V5 (ligand)
chain: LGASIICNKIPGLAPRQRAICQSRPDAIIVIGEGSQMGLDECQFQFRNGRWNCSALGERTVFGKELKVGSREAAFTYAIIAAGVAHAITAACTQGNLSDCGCDKEKQGQYHRDEGWKWGGCSADIRYGIGFAKVFVDAREIKQNARTLMNLHNNEAGRKILEENMKLECKCHGVSGSCTTKTCWTTLPQFRELGYVLKDKYNEAVHVEPVRASRNKRPTFLKIKKPLSYRKPMDTDLVYIEKSPNYCEEDPVTGSVGTQGRACNKTAPQASGCDLMCCGRGYNTHQYARVWQCNCKFHWCCYVKCNTCSERTEMYTCK
modifications: palmitoleic acid at Serine 206 (precursor numbering)
notes: Transiently expressed in HEK293 cells; also called V5-tagged Wnt7a; full-length Wnt7a; not shown: V5 tag
B2: the “fold increase in PLA signal upon co-expression of untagged Gpr124” value with HA-Reck was 4 fold.

B3: pWnt7b (peptide)
peptide: VEVVRASRLRQPTFLRIKQLRSYQKPMET
notes: also called synthetic Wnt7b linker peptide
Turning to B3, the Kd with Reck-CK-Fc [2] was 1.2 µM.

B4: pWnt7b peptide on the AFM tip (peptide)
peptide: VEVVRASRLRQPTFLRIKQLRSYQKPMETC([NHS‑PEG27‑maleimide linker-AFM tip])
modifications: reading uncertain
notes: Used in single-molecule force spectroscopy; also called Pep7b
In turn, B4 had a Kd in the test with Reck-CK-Fc [3] of 5 µM.
